In paper doi:10.1101/2025.03.03.641244 (bioRxiv, 2025):

Legend:
Experiment in all cases: MST
[1] = target: Enhanced GFP with C-terminal (GGGGS)3GG linker and RQLL
[2] = target: Sortilin extracellular domain (ECD) (M1-S756) C-terminally fused to 6His (UniProt Q99523)
[3] = target: T1, Sortilin extracellular domain (ECD) (M1-S756) C-terminally fused to 6His (UniProt Q99523 78-756)
T1 sequence: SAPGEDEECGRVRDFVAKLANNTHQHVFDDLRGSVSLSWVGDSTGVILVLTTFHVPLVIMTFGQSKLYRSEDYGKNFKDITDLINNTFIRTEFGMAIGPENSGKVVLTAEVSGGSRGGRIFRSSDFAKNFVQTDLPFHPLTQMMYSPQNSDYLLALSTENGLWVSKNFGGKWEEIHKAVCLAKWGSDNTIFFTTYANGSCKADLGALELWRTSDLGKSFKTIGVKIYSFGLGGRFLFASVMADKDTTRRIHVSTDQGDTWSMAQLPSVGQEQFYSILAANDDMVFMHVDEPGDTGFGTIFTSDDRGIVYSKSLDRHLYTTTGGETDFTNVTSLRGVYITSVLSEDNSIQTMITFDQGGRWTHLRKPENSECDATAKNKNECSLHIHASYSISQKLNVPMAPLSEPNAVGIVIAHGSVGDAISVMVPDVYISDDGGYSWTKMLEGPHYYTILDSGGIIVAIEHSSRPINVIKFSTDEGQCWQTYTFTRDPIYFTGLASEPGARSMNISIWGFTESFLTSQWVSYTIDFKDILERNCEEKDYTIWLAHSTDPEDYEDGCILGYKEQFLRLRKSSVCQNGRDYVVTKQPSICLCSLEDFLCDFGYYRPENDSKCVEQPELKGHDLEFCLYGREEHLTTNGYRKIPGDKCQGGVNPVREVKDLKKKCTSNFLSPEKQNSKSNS

Sortilin extracellular domain (ECD) (M1-S756) C-terminally fused to 6His (from UniProt Q99523 78-756) (domain or fragment)
Kd [1]: 74 nM

TNFa (V76-L233) with C-terminal (GGGGS)3GG linker and RQLL
Kd [2]: 86.5 nM

TNFa (V76-L233) without RQLL (natural protein)
Kd [2]: > 200000 nM

B1: progranulin N-terminally tagged with the HiBiT peptide (ligand)
chain: TRCPDGQFCPVACCLDPGGASYSCCRPLLDKWPTTLSRHLGGPCQVDAHCSAGHSCIFTVSGTSSCCPFPEAVACGDGHHCCPRGFHCSADGRSCFQRSGNNSVGAIQCPDSQFECPDFSTCCVMVDGSWGCCPMPQASCCEDRVHCCPHGAFCDLVHTRCITPTGTHPLAKKLPAQRTNRAVALSSSVMCPDARSRCPDGSTCCELPSGKYGCCPMPNATCCSDHLHCCPQDTVCDLIQSKCLSKENATTDLLTKLPAHTVGDVKCDMEVSCPDGYTCCRLQSGAWGCCPFTQAVCCEDHIHCCPAGFTCDTQKGTCEQGPHQVPWMEKAPAHLSLPDPQALKRDVPCDNVSSCPSSDTCCQLTSGEWGCCPIPEAVCCSDHQHCCPQGYTCVAEGQCQRGSEIVAGLEKMPARRASLSHPRDIGCDQHTSCPVGQTCCPSLGGSWACCQLPHAVCCEDRQHCCPAGYTCNVKARSCEKEVVSAQPATFLARSPHVGVKDVECGEGHFCHDNQTCCRDNRQGWACCPYRQGVCCADRRHCCPAGFRCAARGTKCLRREAPRWDAPLRDPALRQLL
Kd [3]: 3.5 ± 1.6 nM
